From the supplement of paper PMC10724198
± gives the standard deviation of the averaged measurements.

These sequences were tested on Saccharomyces cerevisiae (assay: protein stability index of tFT-peptide fusion (C-terminal peptide) (PSI (0-1 scale)); higher = more stable (slower turnover)). Settings: genetic background: wild type; temperature: 30 C.
Experimental: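 Multiplexed protein stability (MPS) profiling in S. cerevisiae. Random 12-aa peptides (tFT-X12 library) are fused to the C-terminus of a sfGFP-mCherry tandem fluorescent timer, after mCherry and a GGGS linker. Cells are FACS-sorted into 8 mCherry/sfGFP bins and deep-sequenced. The protein stability index (PSI) is the read-weighted bin average, scaled from 0 (unstable) to 1 (stable). Only peptides with >10 reads are reported; cells were grown at 30 °C in SC-His with glucose.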
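Note: PSI is a weighted mean of sequencing reads over stability bins, variants kept only with over 10 reads, mCherry proximal and sfGFP distal, peptide attached via GGGS linker.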

In order of falling protein stability index:
1. FRCQHVRVSASF  0.799 ± 0.028
2. FYREFNSSSVCT  0.788 ± 0.24
3. GADTSRSYRIGL  0.757 ± 0.0085
4. GACPARGRFLRR  0.753 ± 0.086
5. FSLPPNPQPKLL  0.741 ± 0.07
6. FSRVRNVLGLGG  0.73 ± 0.12
7. GARGMGGLFFLG  0.728 ± 0.053
8. GAGGCNVGWRIR  0.7265 ± 0.0014
9. FSARCGGGLDWS  0.722 ± 0.038
10. FRNESLVAGKSG  0.717 ± 0.076
11. FSHPCPLSGLYP  0.716 ± 0.015
12. FYRPNLLNAGRL  0.715 ± 0.023
13. GADPPGHSSDDS  0.712 ± 0.11
14. FVADRLIFGKSL  0.71 ± 0.044
15. FVLADLVPILFS  0.7102 ± 0.0013
16. FVLLGVRGVAGW  0.709 ± 0.02
17. GACSPQTNDSSR  0.709 ± 0.035
18. FSPPLGRFLLRH  0.707 ± 0.062
19. GASPRAYPLPPP  0.707 ± 0.032
20. FQWAPGIDTVYC  0.705 ± 0.058
21. FSGLNWLLCHSK  0.704 ± 0.015
22. FSPVSAPPTRVS  0.703 ± 0.042
23. FRLAPPSVYDFV  0.7008 ± 0.002
24. FVNKRRGCRELE  0.701 ± 0.0053
25. FSFCRLPDSPSS  0.698 ± 0.026
26. FTSGESVCGGRV  0.698 ± 0.0026
27. FRGTLRFYRPVN  0.696 ± 0.016
28. GAGAHCVSWLSN  0.695 ± 0.0076
29. FVQSMGVGLGWG  0.694 ± 0.026
30. FRKALRIQSVGS  0.6926 ± 0.0019
31. FTSPLPPVAPPL  0.693 ± 0.03
32. FSSHGFSSFLLL  0.691 ± 0.084
33. GAGWLSWEGGGD  0.686 ± 0.04
34. FSSAINSFAFQP  0.683 ± 0.026
35. FWGGGGGVGLAV  0.683 ± 0.063
36. FYRWDTFRWTRG  0.683 ± 0.01
37. FVRPPHTTHPHP  0.681 ± 0.041
38. FRAYCLPCNYHR  0.68 ± 0.052
39. FSSSSLFFSRTL  0.677 ± 0.052
40. FRPPPTLLLRPH  0.676 ± 0.026
41. FRTPASLSLPLS  0.676 ± 0.021
42. GATGGAWGVWAG  0.676 ± 0.019
43. GAGWCDGGRGGV  0.6747 ± 0.0014
44. GARAGLIDALLS  0.675 ± 0.021
45. FSVWCDLFGFFC  0.674 ± 0.075
46. GAGDGRGRIEGR  0.674 ± 0.015
47. FVSGLEMCRTCF  0.672 ± 0.025
48. GASGLRIIQVSW  0.671 ± 0.0098
49. GACHNVGVGPLG  0.67 ± 0.024
50. GAFRQGYCLSGL  0.67 ± 0.025
51. FQSSSKSRPRPA  0.669 ± 0.057
52. FSCKRMISKTGF  0.669 ± 0.035
53. GALLLVPFFWGE  0.668 ± 0.018
54. FSNFVYFFFRSS  0.666 ± 0.12
55. FRELIRPSKENR  0.664 ± 0.025
56. FRFSELPTGFGQ  0.664 ± 0.058
57. FSGCVEIYWHWL  0.662 ± 0.011
58. FYPSRVPPLQSA  0.662 ± 0.056
59. GAFCGGSSVFYL  0.659 ± 0.01
60. FSRLLCPPSFSF  0.658 ± 0.0072
61. FRRRYGCLLRGE  0.6573 ± 0.004
62. FSHPLLRARRTW  0.656 ± 0.086
63. FTLRILSRPVIP  0.656 ± 0.046
64. FSFQTLPTPTSP  0.655 ± 0.06
65. FWMPKASALGAA  0.655 ± 0.019
66. FRDEVLGSGVGS  0.65 ± 0.017
67. GAQSRQMRSLAQ  0.65 ± 0.11
68. FRSRFGPCLRSV  0.649 ± 0.027
69. GAPLALSVSFPG  0.648 ± 0.014
70. FVGAAALSVWGG  0.645 ± 0.0072
71. FSGWVFAPFFFF  0.644 ± 0.048
72. FVSSFSCVGLVL  0.644 ± 0.08
73. FRLDRYLGGKIG  0.641 ± 0.063
74. FYYAERGSVERQ  0.641 ± 0.0095
75. FSSSMCLGMRLR  0.639 ± 0.096
76. GAGMAGEVVGDG  0.637 ± 0.026
77. GAVARFRPCWPL  0.633 ± 0.011
78. FSVFFDFIIARF  0.632 ± 0.067
79. GAGKGWARWLVW  0.632 ± 0.041
80. GASGVYMLDAYA  0.632 ± 0.058
81. FTQVIQQQRRVV  0.627 ± 0.067
82. FRGTVYRGTRPR  0.622 ± 0.072
83. FSLGPSPLRPHA  0.611 ± 0.086
84. FTWFGAFLSCFV  0.61 ± 0.069
85. FSASMSTIWQTG  0.602 ± 0.034
86. GARSRLFRWWVA  0.601 ± 0.012
87. FRRHRHDVLTVR  0.599 ± 0.05
88. FSLLSSSSFFVL  0.591 ± 0.01
89. FTVCVIYSKPSQ  0.5872 ± 0.0013
90. FVLSVDLSVEGS  0.585 ± 0.037
91. GASDWVMLYWVV  0.584 ± 0.0098
92. FVASVGVGGGVG  0.58 ± 0.013
93. FSVFSCLVCSLD  0.575 ± 0.011
94. FVSLVATASHWV  0.568 ± 0.033
95. FSPSFGSLLVIC  0.556 ± 0.02
96. GAVWLLFCGGVG  0.555 ± 0.024
97. FSLSRLCFCFRS  0.529 ± 0.024
98. FVSFFPFPFLLL  0.482 ± 0.045
